# In doi:10.1101/2025.09.02.673761 (bioRxiv, 2025):
# B1: KIF20A (kinesin-6 motor), unlabeled (natural protein)
# chain: MSQGILSPPAGLLSDDDVVVSPMFESTAADLGSVVRKNLLSDCSVVSTSLEDKQQVPSEDSMEKVKVYLRVRPLLPSELERQEDQGCVRIENVETLVLQAPKDSFALKSNERGIGQATHRFTFSQIFGPEVGQASFFNLTVKEMVKDVLKGQNWLIYTYGVTNSGKTHTIQGTIKDGGILPRSLALIFNSLQGQLHPTPDLKPLLSNEVIWLDSKQIRQEEMKKLSLLNGGLQEEELSTSLKRSVYIESRIGTSTSFDSGIAGLSSISQCTSSSQLDETSHRWAQPDTAPLPVPANIRFSIWISFFEIYNELLYDLLEPPSQQRKRQTLRLCEDQNGNPYVKDLNWIHVQDAEEAWKLLKVGRKNQSFASTHLNQNSSRSHSIFSIRILHLQGEGDIVPKISELSLCDLAGSERCKDQKSGERLKEAGNINTSLHTLGRCIAALRQNQQNRSKQNLVPFRDSKLTRVFQGFFTGRGRSCMIVNVNPCASTYDETLHVAKFSAIASQLVHAPPMQLGFPSLHSFIKEHSLQVSPSLEKGAKADTGLDDDIENEADISMYGKEELLQVVEAMKTLLLKERQEKLQLEMHLRDEICNEMVEQMQQREQWCSEHLDTQKELLEEMYEEKLNILKESLTSFYQEEIQERDEKIEELEALLQEARQQSVAHQQSGSELALRRSQRLAASASTQQLQEVKAKLQQCKAELNSTTEELHKYQKMLEPPPSAKPFTIDVDKKLEEGQKNIRLLRTELQKLGESLQSAERACCHSTGAGKLRQALTTCDDILIKQDQTLAELQNNMVLVKLDLRKKAACIAEQYHTVLKLQGQVSAKKRLGTNQENQQPNQQPPGKKPFLRNLLPRTPTCQSSTDCSPYARILRSRRSPLLKSGPFGKKY
# Molecular target: GFP-tagged holo-CPC (Chromosomal Passenger Complex: INCENP, GFP-Aurora B, Borealin, Survivin) (human, UniProt Q9NQS7;Q96GD4;Q53HL2;O15392)
# Assay: pull-down
# Sequence of GFP-tagged holo-CPC (Chromosomal Passenger Complex: INCENP, GFP-Aurora B, Borealin, Survivin) (Q9NQS7 whole entry, chain 1 of 4): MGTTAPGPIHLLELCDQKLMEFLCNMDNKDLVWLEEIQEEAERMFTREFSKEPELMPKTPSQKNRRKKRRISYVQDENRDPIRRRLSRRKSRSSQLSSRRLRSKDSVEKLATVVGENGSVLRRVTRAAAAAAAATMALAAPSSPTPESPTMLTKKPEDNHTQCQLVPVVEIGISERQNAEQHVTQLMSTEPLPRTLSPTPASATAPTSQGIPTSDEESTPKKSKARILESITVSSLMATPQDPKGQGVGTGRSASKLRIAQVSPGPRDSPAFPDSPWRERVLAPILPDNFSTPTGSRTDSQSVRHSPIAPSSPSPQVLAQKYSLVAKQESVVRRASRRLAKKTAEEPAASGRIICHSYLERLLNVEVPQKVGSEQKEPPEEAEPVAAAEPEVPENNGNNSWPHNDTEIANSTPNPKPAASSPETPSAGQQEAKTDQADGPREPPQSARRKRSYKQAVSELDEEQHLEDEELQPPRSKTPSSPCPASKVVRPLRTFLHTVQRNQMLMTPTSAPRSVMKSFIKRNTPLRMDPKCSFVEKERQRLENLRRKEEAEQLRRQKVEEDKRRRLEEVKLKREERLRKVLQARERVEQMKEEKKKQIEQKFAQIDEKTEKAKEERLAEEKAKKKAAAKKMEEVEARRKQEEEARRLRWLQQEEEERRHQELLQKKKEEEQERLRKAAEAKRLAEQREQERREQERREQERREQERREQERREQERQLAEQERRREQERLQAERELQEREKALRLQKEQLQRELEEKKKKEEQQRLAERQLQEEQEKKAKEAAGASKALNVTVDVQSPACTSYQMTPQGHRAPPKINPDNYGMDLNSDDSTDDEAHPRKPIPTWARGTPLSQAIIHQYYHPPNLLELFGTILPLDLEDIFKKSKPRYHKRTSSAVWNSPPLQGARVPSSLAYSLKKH
# Sequence of GFP-tagged holo-CPC (Chromosomal Passenger Complex: INCENP, GFP-Aurora B, Borealin, Survivin) (Q96GD4 whole entry, chain 2 of 4): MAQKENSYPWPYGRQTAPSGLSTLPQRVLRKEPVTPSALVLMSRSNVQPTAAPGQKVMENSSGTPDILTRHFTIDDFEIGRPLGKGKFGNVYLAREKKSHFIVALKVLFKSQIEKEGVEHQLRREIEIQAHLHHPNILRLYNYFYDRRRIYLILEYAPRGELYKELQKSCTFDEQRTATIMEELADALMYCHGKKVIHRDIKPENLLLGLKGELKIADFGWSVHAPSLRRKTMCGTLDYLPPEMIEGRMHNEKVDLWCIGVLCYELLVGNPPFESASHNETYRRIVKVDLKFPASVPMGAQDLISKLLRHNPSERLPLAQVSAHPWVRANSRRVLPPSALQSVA
# Sequence of GFP-tagged holo-CPC (Chromosomal Passenger Complex: INCENP, GFP-Aurora B, Borealin, Survivin) (Q53HL2 whole entry, chain 3 of 4): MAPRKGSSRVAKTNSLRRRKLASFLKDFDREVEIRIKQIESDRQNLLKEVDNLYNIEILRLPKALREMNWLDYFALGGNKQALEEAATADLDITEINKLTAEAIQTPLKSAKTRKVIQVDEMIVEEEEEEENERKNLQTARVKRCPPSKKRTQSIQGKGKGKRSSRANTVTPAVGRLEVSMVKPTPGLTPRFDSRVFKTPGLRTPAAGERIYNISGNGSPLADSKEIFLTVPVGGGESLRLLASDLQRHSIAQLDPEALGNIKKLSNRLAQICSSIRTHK
# Sequence of GFP-tagged holo-CPC (Chromosomal Passenger Complex: INCENP, GFP-Aurora B, Borealin, Survivin) (O15392 whole entry, chain 4 of 4): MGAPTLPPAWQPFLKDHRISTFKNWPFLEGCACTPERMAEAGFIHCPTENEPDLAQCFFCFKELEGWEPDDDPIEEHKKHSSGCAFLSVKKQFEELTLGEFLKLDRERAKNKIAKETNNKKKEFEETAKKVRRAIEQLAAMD
binder,measurement,value
B1,binding result,binds
